Results published in patent publication US20210347868A1 (published 2021).
Where two headings read alike, the source gives them in different places.

Legend:
full-length synuclein [1] = assay: ITC
full-length synuclein [2] = assay: ITC; remark: listed apart in the source

Binder	Kd (full-length synuclein [1])	Kd (full-length synuclein [2])
Asyn-338.1 (antibody, V domains shown) VH: QVQLVESGGDIVQPGGSLKLSCAASGFTFKSYWMHWVRQVPGKGLFWVSRINTFGNKTSYADSVRGRFSISRDNTKSILYLQMNSLKAEDTAVYYCARSTLGSFDYWGQGTLVTVSS VL: AIQLTQSPDSLAVSLGERATINCKASQSLLYSSNNRNYLAWYQQKPGQPPKALIYWASTRESGVPDRFSGSGSGTDFTLTISSLQAEDVAVYYCHQYYTTHSFGQGTKLEIK	0.3 µM	
Asyn-336.1 (antibody, V domains shown) VH: EVQLVQSGGTLVQPGGSLRLSCAASGFTFSTYAISWVRQAPGRGLEWVSFITGDGSRILYADSVRGRFSISRDNSKNTLYLQMNSLRTDDTAMYYCVFNHYWGQGTLVTVSS VL: AIQLTQSPDSLAVSLGERATINCKASQSLLYSSNNRNYLAWYQQKPGQPPKALIYWASTRESGVPDRFSGSGSGTDFTLTISSLQAEDVAVYYCHQYYTTHSFGQGTKLEIK	1.4 µM	
Asyn-323.1 (antibody, V domains shown) VH: EVQLLESGGGLVQPGGSLKLSCAASGFTFSASAMHWVRQTSDKRLEWVGRIRNKANNYATAYAASVKGRFTISRDDSKNTAYLQMNSLKTEDTAVYYCTRHLSLGGNSVDYWGQGTPVTVSS VL: DVVMTQSPLSSPVTLGQPASISCRASQSPVHSDGNTYLSWLQQRPGQPPRLLIYTISNRFPGVPDRFSGSGAGTDFTLRISRVEAEDVGVYYCMQGTQFPYTFGQGTKLEIK		2.8 µM
